Results published in the supplement of paper PMC9112550, “Optimization of the antimicrobial peptide Bac7 by deep mutational scanning” (BMC Biology, 2022).

Test system: Escherichia coli TOP10
Assay: shrunken log2 fold change of peptide-encoding DNA abundance (4.5 h post-induction vs induction); higher = less antimicrobial activity (less host growth inhibition)
Settings: time post-induction: 4.5 h; library: site-saturation at positions 5, 18, 19, 20
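Also: peptides expressed intracellularly from a pBAD plasmid library in pooled LB shake-flask culture, induced with 0.3% L-arabinose, DNA abundance read by NGS, three biological replicates, DESeq2 with apeglm shrinkage.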

Row | Sequence | shrunken log2 fold change
1 | RRIRVRPPRLPRPRPRPHPTPRP | 0.23
2 | RRIRRRPPRLPRPRPRPWATPRP | 0.0893
3 | RRIRPRPPRLPRPRPRPLYDPRP | 2.73
4 | RRIRCRPPRLPRPRPRPVPRPRP | 0.534
5 | RRIRNRPPRLPRPRPRPTNKPRP | -0.468
6 | RRIRARPPRLPRPRPRPYQHPRP | -0.272
7 | RRIRTRPPRLPRPRPRPEPLPRP | 0.0272
8 | RRIRDRPPRLPRPRPRPQAFPRP | -0.184
9 | RRIRLRPPRLPRPRPRPVRIPRP | 0.115
10 | RRIRRRPPRLPRPRPRPCAFPRP | 0.123
11 | RRIRWRPPRLPRPRPRPPWVPRP | -0.00745
12 | RRIRKRPPRLPRPRPRPHQQPRP | -0.0506
13 | RRIRHRPPRLPRPRPRPCQVPRP | -0.345
14 | RRIRQRPPRLPRPRPRPWYWPRP | -0.468
15 | RRIRRRPPRLPRPRPRPDASPRP | 0.0354
16 | RRIRLRPPRLPRPRPRPRDQPRP | 0.0949
17 | RRIRMRPPRLPRPRPRPSGRPRP | 0.556
18 | RRIRQRPPRLPRPRPRPPGAPRP | 0.757
19 | RRIRERPPRLPRPRPRPDHAPRP | -0.318
20 | RRIRSRPPRLPRPRPRPPLTPRP | 0.367
21 | RRIRNRPPRLPRPRPRPRLPPRP | 0.245
22 | RRIRHRPPRLPRPRPRPPCKPRP | -0.196
23 | RRIRTRPPRLPRPRPRPQPPPRP | 0.357
24 | RRIRPRPPRLPRPRPRPWHTPRP | -0.087
25 | RRIRQRPPRLPRPRPRPPLIPRP | 0.0445

Row | Sequence | shrunken log2 fold change
26 | RRIRLRPPRLPRPRPRPYVWPRP | -0.872
27 | RRIRDRPPRLPRPRPRPRGMPRP | 0.0251
28 | RRIRHRPPRLPRPRPRPHVSPRP | -0.0122
29 | RRIRLRPPRLPRPRPRPTNYPRP | -0.251
30 | RRIRPRPPRLPRPRPRPLPSPRP | 0.0677
31 | RRIRDRPPRLPRPRPRPWGRPRP | 0.258
32 | RRIRLRPPRLPRPRPRPPTPPRP | 0.617
33 | RRIRHRPPRLPRPRPRPWFDPRP | -0.0263
34 | RRIRCRPPRLPRPRPRPCMRPRP | 0.0312
35 | RRIRFRPPRLPRPRPRPKACPRP | -0.174
36 | RRIRYRPPRLPRPRPRPELKPRP | -0.162
37 | RRIRGRPPRLPRPRPRPMCSPRP | 0.606
38 | RRIRMRPPRLPRPRPRPAHDPRP | 0.673
39 | RRIRNRPPRLPRPRPRPWQNPRP | 0.191
40 | RRIRERPPRLPRPRPRPKDCPRP | 0.033
41 | RRIRTRPPRLPRPRPRPSKRPRP | -0.325
42 | RRIRERPPRLPRPRPRPYPVPRP | -0.224
43 | RRIRYRPPRLPRPRPRPLAWPRP | -0.0165
44 | RRIRWRPPRLPRPRPRPIEAPRP | 0.199
45 | RRIRGRPPRLPRPRPRPFDMPRP | 0.255
46 | RRIRNRPPRLPRPRPRPYMMPRP | -0.118
47 | RRIRGRPPRLPRPRPRPQVGPRP | 0.395
48 | RRIRYRPPRLPRPRPRPIRRPRP | -0.0923
49 | RRIRCRPPRLPRPRPRPMNTPRP | -0.727
50 | RRIRVRPPRLPRPRPRPHMYPRP | -0.509

Row | Sequence | shrunken log2 fold change
51 | RRIRCRPPRLPRPRPRPMVEPRP | 0.237
52 | RRIRDRPPRLPRPRPRPFSTPRP | -0.0877
53 | RRIRFRPPRLPRPRPRPRHFPRP | 0.0931
54 | RRIRRRPPRLPRPRPRPRDWPRP | 1.01
55 | RRIRDRPPRLPRPRPRPLYHPRP | -0.54
56 | RRIRVRPPRLPRPRPRPAYVPRP | -0.17
57 | RRIRDRPPRLPRPRPRPTNLPRP | -0.182
58 | RRIRMRPPRLPRPRPRPHQKPRP | -0.0408
59 | RRIRWRPPRLPRPRPRPTRQPRP | 0.195
60 | RRIRNRPPRLPRPRPRPTWVPRP | 0.0257
61 | RRIRTRPPRLPRPRPRPYQMPRP | 0.0528
62 | RRIRLRPPRLPRPRPRPKIFPRP | -0.0395
63 | RRIRERPPRLPRPRPRPCIHPRP | -0.229
64 | RRIRGRPPRLPRPRPRPPEWPRP | 1.13
65 | RRIRPRPPRLPRPRPRPMDWPRP | 0.432
66 | RRIRIRPPRLPRPRPRPVHEPRP | -0.139
67 | RRIRRRPPRLPRPRPRPYQPPRP | -0.00931
68 | RRIRGRPPRLPRPRPRPDQTPRP | 0.0112
69 | RRIRKRPPRLPRPRPRPYCNPRP | 0.068
70 | RRIRVRPPRLPRPRPRPNSAPRP | 0.198
71 | RRIRVRPPRLPRPRPRPYMDPRP | -0.0331
72 | RRIRDRPPRLPRPRPRPIHCPRP | -0.135
73 | RRIRLRPPRLPRPRPRPWHMPRP | 0.041
74 | RRIRPRPPRLPRPRPRPVQYPRP | -0.0191
75 | RRIRERPPRLPRPRPRPFCEPRP | -0.0162

Row | Sequence | shrunken log2 fold change
76 | RRIRERPPRLPRPRPRPQMTPRP | -0.312
77 | RRIRNRPPRLPRPRPRPAITPRP | 0.134
78 | RRIRARPPRLPRPRPRPWMCPRP | -0.12
79 | RRIRARPPRLPRPRPRPSANPRP | 0.344
80 | RRIRCRPPRLPRPRPRPIGIPRP | -0.303
81 | RRIRYRPPRLPRPRPRPRREPRP | 0.0181
82 | RRIRQRPPRLPRPRPRPEVSPRP | 0.116
83 | RRIRQRPPRLPRPRPRPRRAPRP | 0.79
84 | RRIRSRPPRLPRPRPRPREDPRP | 0.432
85 | RRIRPRPPRLPRPRPRPSPRPRP | 0.633
86 | RRIRARPPRLPRPRPRPKDTPRP | 0.293
87 | RRIRFRPPRLPRPRPRPEHWPRP | 0.0716
88 | RRIRRRPPRLPRPRPRPYTLPRP | -0.34
89 | RRIRNRPPRLPRPRPRPYYHPRP | -0.781
90 | RRIRLRPPRLPRPRPRPSCKPRP | 0.0208
91 | RRIRWRPPRLPRPRPRPDWRPRP | -0.0316
92 | RRIRNRPPRLPRPRPRPRENPRP | -0.0577
93 | RRIRGRPPRLPRPRPRPLLGPRP | 0.833
94 | RRIRYRPPRLPRPRPRPEFIPRP | -0.628
95 | RRIRDRPPRLPRPRPRPKTAPRP | 0.00938
96 | RRIRGRPPRLPRPRPRPTMRPRP | 1.44
97 | RRIRNRPPRLPRPRPRPLTGPRP | 0.0323
98 | RRIRMRPPRLPRPRPRPKPPPRP | 1.64
99 | RRIRQRPPRLPRPRPRPVPHPRP | -0.0417
100 | RRIRPRPPRLPRPRPRPTHIPRP | 0.0811

Row | Sequence | shrunken log2 fold change
101 | RRIRIRPPRLPRPRPRPPNRPRP | -0.462
102 | RRIRHRPPRLPRPRPRPHLYPRP | -0.24
103 | RRIRYRPPRLPRPRPRPGHAPRP | 3.02
104 | RRIRERPPRLPRPRPRPHLWPRP | 2.71
105 | RRIRERPPRLPRPRPRPEGIPRP | 0.0236
106 | RRIRWRPPRLPRPRPRPEAQPRP | 0.779
107 | RRIRLRPPRLPRPRPRPCLGPRP | -0.25
108 | RRIRNRPPRLPRPRPRPGSYPRP | -0.442
109 | RRIRPRPPRLPRPRPRPTAPPRP | 0.528
110 | RRIRMRPPRLPRPRPRPRSNPRP | 0.13
111 | RRIRMRPPRLPRPRPRPGMFPRP | 0.341
112 | RRIRGRPPRLPRPRPRPGRWPRP | 0.716
113 | RRIRHRPPRLPRPRPRPADQPRP | 0.0188
114 | RRIRSRPPRLPRPRPRPKENPRP | -0.0465
115 | RRIRMRPPRLPRPRPRPTHGPRP | 0.188
116 | RRIRNRPPRLPRPRPRPRGQPRP | 0.114
117 | RRIRWRPPRLPRPRPRPFHNPRP | -0.392
118 | RRIRARPPRLPRPRPRPEHTPRP | 0.0124
119 | RRIRCRPPRLPRPRPRPLNRPRP | -0.413
120 | RRIRERPPRLPRPRPRPTIHPRP | -0.324
121 | RRIRHRPPRLPRPRPRPKAGPRP | -0.115
122 | RRIRYRPPRLPRPRPRPTLFPRP | -0.145
123 | RRIRPRPPRLPRPRPRPVCYPRP | -0.309
124 | RRIRRRPPRLPRPRPRPKDSPRP | 0.191
125 | RRIRERPPRLPRPRPRPQVGPRP | -0.0112

Row | Sequence | shrunken log2 fold change
126 | RRIRQRPPRLPRPRPRPQGNPRP | 0.00341
127 | RRIRMRPPRLPRPRPRPDEEPRP | 2.97
128 | RRIRYRPPRLPRPRPRPIMYPRP | -0.0119
129 | RRIRARPPRLPRPRPRPLVWPRP | 0.774
130 | RRIRKRPPRLPRPRPRPQPEPRP | 0.7
131 | RRIRRRPPRLPRPRPRPCPRPRP | 0.0796
132 | RRIRGRPPRLPRPRPRPDHDPRP | 0.301
133 | RRIRWRPPRLPRPRPRPYLGPRP | -0.616
134 | RRIRSRPPRLPRPRPRPGKSPRP | -0.0274
135 | RRIRYRPPRLPRPRPRPCALPRP | -0.671
136 | RRIRRRPPRLPRPRPRPRIIPRP | 0.0728
137 | RRIRTRPPRLPRPRPRPKLCPRP | 0.0416
138 | RRIRNRPPRLPRPRPRPSHIPRP | -0.69
139 | RRIRQRPPRLPRPRPRPINWPRP | -0.0302
140 | RRIRGRPPRLPRPRPRPPLHPRP | 0.501
141 | RRIRDRPPRLPRPRPRPVTMPRP | -0.228
142 | RRIRPRPPRLPRPRPRPVDWPRP | 0.656
143 | RRIRMRPPRLPRPRPRPKMDPRP | 1.2
144 | RRIRWRPPRLPRPRPRPTYTPRP | -0.136
145 | RRIRMRPPRLPRPRPRPALVPRP | 0.327
146 | RRIRSRPPRLPRPRPRPNYQPRP | -0.199
147 | RRIRTRPPRLPRPRPRPPHRPRP | -0.0645
148 | RRIRVRPPRLPRPRPRPHHWPRP | -0.157
149 | RRIRGRPPRLPRPRPRPGFAPRP | 0.831
150 | RRIRIRPPRLPRPRPRPNQRPRP | 0.00427
